Reference: patent publication USRE39849 (CHEMOCENTRYX, dated 2007)

T1: human CCX CKR with N-terminal Flag epitope, stably expressed on HEK293 cells (human, UniProt Q9NPB9 1-350)
T1 construct: also called HEK293-CCX CKR cells
T1 sequence: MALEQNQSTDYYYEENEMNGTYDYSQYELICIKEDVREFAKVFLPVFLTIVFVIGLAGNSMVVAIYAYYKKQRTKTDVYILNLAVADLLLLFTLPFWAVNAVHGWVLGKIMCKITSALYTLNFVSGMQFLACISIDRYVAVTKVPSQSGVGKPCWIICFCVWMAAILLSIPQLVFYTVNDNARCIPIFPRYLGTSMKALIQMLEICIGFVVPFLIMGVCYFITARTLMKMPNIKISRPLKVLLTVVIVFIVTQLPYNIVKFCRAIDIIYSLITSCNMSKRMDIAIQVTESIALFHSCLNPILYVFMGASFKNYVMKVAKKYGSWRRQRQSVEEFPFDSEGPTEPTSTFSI

B1: murine ELC (ligand, UniProt O70460 26-108, looked up)
chain: GANDAEDCCLSVTQRPIPGNIVKAFRYLLNEDGCRVPAVVFTTLRGYQLCAPPDQPWVDRIIRRLKKSSAKNKGNSTRRSPVS
notes: also called murine version of ELC
B2: human TECK (thymus expressed chemokine) (ligand, UniProt O15444 24-150, looked up)
chain: QGVFEDCCLAYHYPIGWAVLRRAWTYRIQEVSGSCNLPAAIFYLPKRHRKVCGNPKSREVQRAMKLLDARNKVFAKLHHNTQTFQAGPHAVKKLSSGNSKLSSSKFSNPISSSKRNVSLLISANSGL
notes: also called soluble TECK; cold TECK
B3: mMIP-1 gamma (murine macrophage inflammatory protein-1 gamma) (ligand, UniProt P51670 22-122, looked up)
chain: QITHATETKEVQSSLKAQQGLEIEMFHMGFQDSSDCCLSYNSRIQCSRFIGYFPTSGGCTRPGIIFISKRGFQVCANPSDRRVQRCIERLEQNSQPRTYKQ
notes: also called mMIP-1γ; CCF18
B4: human SLC (secondary lymphoid-tissue chemokine) (ligand, UniProt O00585 24-134, looked up)
chain: SDGGAQDCCLKYSQRKIPAKVVRSYRKQEPSLGCSIPAILFLPRKRSQAELCADPKELWVQQLMQHLDKTPSPQKPAQGCRKDRGASKTGKKGKGSKGCKRTERSQTPKGP
notes: also called 6Ckine; soluble SLC
B5: murine CTACK (ligand, UniProt Q9Z1X0 26-120, looked up)
chain: LPLPSSTSCCTQLYRQPLPSRLLRRIVHMELQEADGDCHLQAVVLHLARRSVCVHPQNRSLARWLERQGKRLQGTVPSLNLVLQKKMYSHPQQQN
notes: also called mCTACK; CCL27
B6: human ELC (EBI1 ligand chemokine) (ligand, UniProt Q99731 22-98, looked up)
chain: GTNDAEDCCLSVTQKPIPGYIVRNFHYLLIKDGCRVPAVVFTTLRGRQLCAPPDQPWVERIIQRLQRTSAKMKRRSS
notes: also called MIP-3beta; MIP3beta
B7: murine TECK (ligand, UniProt O35903 24-144, looked up)
chain: QGAFEDCCLGYQHRIKWNVLRHARNYHQQEVSGSCNLRAVRFYFRQKVVCGNPEDMNVKRAMRILTARKRLVHWKSASDSQTERKKSNHMKSKVENPNSTSVRSATLGHPRMVMMPRKTNN
notes: also called murine version of TECK

What was measured:
[1] = biological target: T1, human CCX CKR with N-terminal Flag …; assay: radioligand binding competition on CCX CKR stable transfectants
[2] = biological target: T1, human CCX CKR with N-terminal Flag …; assay: displacement of 125I-ELC (or 125I-TECK) from CCX CKR stable transfectants, cold chemokine at 200 nM
[3] = biological target: T1, human CCX CKR with N-terminal Flag …; assay: radioligand binding competition on CCX CKR stable transfectants (similar experiments, not shown)

Binder | binding result [2] | further results
B1 |  | binding result [1]: binds
B2 | binds | 
B3 | binds | 
B4 | binds | 
B5 |  | Kd [3]: ~9 nM
B6 |  | binding result [1]: binds
B7 | binds | 
